# Assay results reported in patent US20230029453A1 (Janssen / Centocor, published 2023).
# B1: Peptide 4, 9-mer SLYHREKQL derived from P22 (SEQ ID NO: 1003) (peptide)
# peptide: SLYHREKQL
# B2: Peptide 2, 9-mer IAMDSAITL derived from FUS1 (SEQ ID NO: 1001) (peptide)
# peptide: IAMDSAITL
# B3: Peptide 5, 9-mer LYHREKQLI derived from P22 (SEQ ID NO: 1003) (peptide)
# peptide: LYHREKQLI
# B4: Peptide 7, 9-mer HREKQLIAM derived from P22 (SEQ ID NO: 1003) (peptide)
# peptide: HREKQLIAM
# B5: Peptide 6, 9-mer YHREKQLIA derived from P22 (SEQ ID NO: 1003) (peptide)
# peptide: YHREKQLIA
# B6: Peptide 9, 9-mer KQLIAMDSA derived from P22 (SEQ ID NO: 1003) (peptide)
# peptide: KQLIAMDSA
# B7: Peptide 1, 9-mer AMDSAITLW derived from FUS1 (SEQ ID NO: 1001) (peptide)
# peptide: AMDSAITLW
# B8: Peptide 3, 9-mer SLIAMDSAI derived from FUS1 (SEQ ID NO: 1001) (peptide)
# peptide: SLIAMDSAI
# Molecular target: T1, HLA-A*01:01 (human, biotinylated heavy chain)
# T1 construct: Conditional HLA class I complex (heavy chain + B2M) first held by a UV-labile peptide; the tested peptide is exchanged in after UV cleavage
# Experiment: UV peptide exchange; HLA class I ELISA
# Protocol: (§1) The UV control represented UV-irradiation of conditional HLA class I complex in the absence of a rescue peptide.
# (§2) The HLA class I ELISA is an enzyme immunoassay based on the detection of beta2-microglobulin (B2M) of (peptide-stabilized) HLA class I complexes. To this end streptavidin was bound onto polystyrene microtiter wells. […] Subsequently, horseradish peroxidase (HRP)-conjugated antibody to human B2M was added. […] In the latter case B2M was removed during the washing step. After removal of non-bound HRP conjugate by washing, a substrate solution was added to the wells. A coloured product formed in proportion to the amount of intact HLA complex present in the samples. After the reaction was terminated by the addition of a stop solution, absorbance was measured in a microtiter plate reader.
Binder,Average %,Exch I (%),Exch II (%)
B1,6.6%,6.7%,6.4%
B2,6.9%,6.7%,7%
B3,6%,6.2%,5.8%
B4,5.4%,5.5%,5.2%
B5,5.8%,6.2%,5.5%
B6,6.3%,6.3%,6.3%
B7,4.6%,4.7%,4.6%
B8,6.9%,6.9%,6.9%

# Molecular target: T2, HLA-A*02:01 (human, biotinylated heavy chain)
# T2 construct: Conditional HLA class I complex as for m1
# Experiment: UV peptide exchange; HLA class I ELISA
# Protocol: as §1, §2
Binder,Average %,Exch I (%),Exch II (%)
B1,87%,82.8%,91.2%
B2,85.8%,81.1%,90.5%
B3,11.8%,11.3%,12.3%
B4,8.2%,7.9%,8.6%
B5,17.2%,16.3%,18.1%
B6,7.2%,6.9%,7.6%
B7,8.6%,8%,9.2%
B8,58.5%,57.3%,59.7%

# Molecular target: T3, HLA-A*24:02 (human, biotinylated heavy chain)
# T3 construct: Conditional HLA class I complex as for m1
# Experiment: UV peptide exchange; HLA class I ELISA
# Protocol: as §1, §2
Binder,Average %,Exch I (%),Exch II (%)
B1,6.6%,6.5%,6.6%
B2,7%,6.7%,7.3%
B3,17.8%,17.5%,18.1%
B4,5.5%,5.4%,5.6%
B5,6.5%,6.6%,6.3%
B6,5%,4.6%,5.3%
B7,5.5%,5.1%,6%
B8,5.5%,5.3%,5.7%

# Molecular target: T4, HLA-B*07:02 (human, biotinylated heavy chain)
# T4 construct: Conditional HLA class I complex as for m1
# Experiment: UV peptide exchange; HLA class I ELISA
# Protocol: as §1, §2
Binder,Average %,Exch I (%),Exch II (%)
B1,10.8%,10.9%,10.8%
B2,67.1%,68.7%,65.4%
B3,10.8%,11.5%,10%
B4,12.6%,12.6%,12.6%
B5,10.8%,11.1%,10.5%
B6,10.3%,10.5%,10.1%
B7,9.7%,10%,9.4%
B8,11.1%,10.9%,11.3%

# Molecular target: T5, HLA-B*08:01 (human, biotinylated heavy chain)
# T5 construct: Conditional HLA class I complex as for m1
# Experiment: UV peptide exchange; HLA class I ELISA
# Protocol: as §1, §2
Binder,Average %,Exch I (%),Exch II (%)
B1,20.7%,20.3%,21.1%
B2,7.9%,7.6%,8.1%
B3,7.7%,7.5%,7.9%
B4,9.5%,9.5%,9.5%
B5,8.3%,8.3%,8.4%
B6,7.7%,7.1%,8.3%
B7,7%,6.6%,7.3%
B8,7.3%,7.5%,7.1%

# Molecular target: T6, HLA-B*27:05 (human, biotinylated heavy chain)
# T6 construct: Conditional HLA class I complex as for m1
# Experiment: UV peptide exchange; HLA class I ELISA
# Protocol: as §2
Binder,Average %,Exch I (%),Exch II (%)
B1,16.5%,19%,14%
B2,9.3%,10.1%,8.5%
B3,17.4%,19.3%,15.4%
B4,30.9%,32.3%,29.5%
B5,13.1%,14.4%,11.7%
B6,10.8%,11.8%,9.8%
B7,9.8%,10.3%,9.3%
B8,6.3%,7.1%,5.5%
